Experimental data taken from the supplement of paper PMC10567573.
± gives the standard deviation.

Assay: protein stability index of a GFP-peptide fusion (GPS, HEK-293T) (PSI 1-6); higher = more stable
[1] = treatment: DMSO, c terminus: native
[2] = treatment: MLN4924 1 uM, 8 h, c terminus: native
[3] = treatment: DMSO, c terminus: a fixed tail appended
[4] = treatment: MLN4924 1 uM, 8 h, c terminus: a fixed tail appended
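Further: 24-mer peptide tiles fused after GFP, lentivirally expressed, FACS-sorted into six equal bins by GFP/DsRed ratio, decoded by Illumina sequencing, PSI is the read-weighted mean bin number.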

Row | Sequence | protein stability index [1] | protein stability index [2] | protein stability index [3] | protein stability index [4]
1 | AAKKVAPLMAKAIRDYKGRFSRR [ELOA2] | 2.79 ± 0.33 | 3.02 ± 0.62 | – | –
2 | QYLRLPDAPEQRLRVMTTNIRSAR [ELOA2] | – | – | 3.58 ± 0.31 | 3.9 ± 0.16
3 | SLEQANRSLQLRIQELELQAQIHG [TFE3] | – | – | 3.51 ± 0.33 | 3.52 ± 0.19
4 | LEEGDELQLAIPRENAQISLDGDV [TNFSF13B] | – | – | 5.43 ± 0.083 | 5.29 ± 0.12
5 | ASAETLPAGFRVSTLGTLQPPPAP [PPFIA4] | – | – | 3.94 ± 0.35 | 4.06 ± 0.23
6 | NHANGLTLVSRAHQLVMEGYNWCH [PPP2CA] | – | – | 2.6 ± 0.16 | 2.49 ± 0.29
7 | GEGRSRGSANDYKDTLGKGSSLSA [KRT71] | – | – | 4.65 ± 0.52 | 4.96 ± 0.35
8 | AIKEMIENCLDAKSTSIQVIVKEG [MLH1] | – | – | 2.79 ± 0.19 | 2.74 ± 0.22
9 | FGGGCDLTPTYLNQEDAIHFHRTL [CPOX] | – | – | 2.62 ± 0.4 | 2.81 ± 0.3
10 | RPTYTPPSIMPQKHWVYVKRGGNC [ZBTB22] | – | – | 2.78 ± 0.25 | 3.06 ± 0.32
11 | ESKMYATSPYSDPVVSMDLDPQPI [PTPRD] | – | – | 4.18 ± 0.53 | 4.42 ± 0.047
12 | IDPRNGIPKLTPGDNPYMYPEQSK [SPATS1] | – | – | 4.58 ± 0.13 | 4.5 ± 0.18
13 | LHTANLGDSGFLVVRGGEVVHRSD [PPTC7] | – | – | 3.62 ± 0.11 | 3.76 ± 0.14
14 | SYFDRGAKGGSRLCTPEGWFSCQG [DFFB] | – | – | 2.46 ± 0.14 | 2.6 ± 0.18
15 | PGPPAAPRARRRLGSGPDRELRKP [PWWP2B] | – | – | 5.03 ± 0.56 | 5.12 ± 0.35
16 | DLAWMITFYVRFFLTYVPLLGLKA [FADS1] | – | – | 3.03 ± 0.11 | 3.62 ± 0.23
17 | PSLQAWNDAPCDKTFLFICKRPYV [CD207] | – | – | 2.17 ± 0.28 | 2.2 ± 0.21
18 | SQSILPLEHGSIYIPSSYVDSHHE [ESR2] | – | – | 3.96 ± 0.19 | 3.95 ± 0.17
19 | SIWAQNQVENWSAFAPDFKELDEN [RBBP5] | – | – | 4.26 ± 0.26 | 4.23 ± 0.23
20 | PVPVIVSNFNYFYHRETEGEEQSQ [KCNA3] | – | – | 3.81 ± 0.34 | 4.15 ± 0.28
21 | GYPTYKEKVKKRPGGRPEVIYNYV [BTBD10] | – | – | 2.41 ± 0.16 | 2.85 ± 0.33
22 | ADTTTGSAAGPPLSEDDKLQGAAS [EHMT1] | – | – | 5.46 ± 0.23 | 5.51 ± 0.18

Row | Sequence | protein stability index [1] | protein stability index [2] | protein stability index [3] | protein stability index [4]
23 | KATMQNLNDRLASYLDKVRALEEA [KRT17] | – | – | 3.14 ± 0.19 | 3.43 ± 0.3
24 | NHGYAEPAAGRELPPDMTVVPGDH [KCNA3] | – | – | 5.21 ± 0.14 | 5.24 ± 0.24
25 | AKGNTALHDCAESGSLEILQLLLG [FEM1A] | – | – | 2.41 ± 0.23 | 2.16 ± 0.26
26 | FLRSIDQFANLVLHQTVERIHVGK [LSM1] | – | – | 2.95 ± 0.55 | 2.46 ± 0.39
27 | FRVGKKIGCGNFGELRLGKNLYTN [CSNK1G3] | – | – | 2.06 ± 0.19 | 2.28 ± 0.087
28 | REHRVRRIHVRRHITHDERPHGQQ [KCTD13] | – | – | 4.36 ± 0.21 | 4.45 ± 0.29
29 | GAELHLQPLEGGTPNSAGGPGAHI [ADAMTS4] | – | – | 4.51 ± 1.1 | 4.74 ± 0.36
30 | LQQAQAQFRMAQEEARRNRLMRDM [SMG5] | – | – | 3.89 ± 0.22 | 4.11 ± 0.27
31 | SLVIGALLASLTGGVLIDRYGRRT [SLC2A12] | – | – | 2.89 ± 0.45 | 3.03 ± 0.42
32 | VQITGQPNILFYASTVLKSVGFQS [SLC2A12] | – | – | 3.12 ± 0.57 | 2.58 ± 0.45
33 | DNAPVFTLPEYRVSVPENLPVGTQ [PCDHGA10] | – | – | 4.54 ± 0.17 | 4.45 ± 0.26
34 | FHKDCASRVNNASYCPHCGEESSK [EHMT1] | – | – | 3.45 ± 0.15 | 4.05 ± 0.47
35 | SESMENINSGYETRRKKGKKDKDI [KMT2E] | – | – | 5.01 ± 0.33 | 5.39 ± 0.42
36 | YVLEFSDHPGIHEPLEPEVKYVGN [CPN1] | – | – | 3.17 ± 0.27 | 3.3 ± 0.1
37 | HTTGPTGSAPNSPMALLTIGSSSE [TFE3] | – | – | 4.53 ± 0.12 | 4.54 ± 0.23
38 | KEGARNIRTSERVTLIVDNTRFVV [BTBD10] | – | – | 1.95 ± 0.32 | 2.29 ± 0.34
39 | LRSPNNFLSYYRLTRFLSRVIKCD [CCND1] | – | – | 2.24 ± 0.42 | 2.44 ± 0.2
40 | CEVIFCVFIFYYVVEEILELHIHR [PKD2L1] | – | – | 3 ± 0.52 | 3.07 ± 0.11
41 | ELLKEAELIRNIQELLKRTIMQAV [TEKT4] | – | – | 2.4 ± 0.2 | 2.27 ± 0.31
42 | AFAQRPSSAPDLMCLSPDRKMEVE [CDC25B] | – | – | 4.97 ± 0.3 | 4.78 ± 0.14
43 | KASWSSLSMDEKVELYRIKFKESF [COX4I1] | – | – | 2.55 ± 0.56 | 2.85 ± 0.44
44 | VEPVCSGLQAQILHCYRDRPHEVL [CHCHD6] | – | – | 2.93 ± 0.21 | 2.94 ± 0.5

Row | Sequence | protein stability index [1] | protein stability index [2] | protein stability index [3] | protein stability index [4]
45 | FGAVVRWAEAECQRQQLPVTFGNK [BTBD1] | – | – | 2.57 ± 0.3 | 2.84 ± 0.18
46 | KAVCGKCSSKRSSIPLMGFEFEVR [WDFY2] | – | – | 2.32 ± 0.12 | 2.71 ± 0.39
47 | IVISYIHVAAAVLRIRSVEGRKKA [OR3A1] | – | – | 2.37 ± 0.6 | 2.05 ± 0.21
48 | DYLYTKQLSPNLDLDPLELIALAN [RHOBTB1] | – | – | 2.31 ± 0.28 | 2.3 ± 0.33
49 | LPLLESCSVRPDASVSSHRFFGPN [TCF25] | – | – | 3.17 ± 0.24 | 3.27 ± 0.26
50 | YMSINTHLGKEQSRRDDLEALGHM [CSNK1G1] | – | – | 3.28 ± 0.19 | 3.74 ± 0.29
51 | WELGGGTSLLDLISIPITGDTLRT [DYNC2LI1] | – | – | 2.22 ± 0.32 | 2.36 ± 0.22
52 | PVVKLLHNRSNNKYSYTSTSDDNL [KCTD13] | – | – | 3.82 ± 0.16 | 3.94 ± 0.19
53 | FAYKDEYEKFKLYLTIILILISFT [TMEM120A] | – | – | 2.83 ± 0.35 | 2.46 ± 0.52
54 | LLAYLIRNGSERVVTSAREHIYDL [CLINT1] | – | – | 2.85 ± 0.33 | 2.41 ± 0.28
55 | GYKSNQVRGLYDFYLPREELWIYN [KLHDC2] | – | – | 2.44 ± 0.16 | 1.98 ± 0.17
56 | QCSNRIGSMKIKSSWDIDGRATKR [FBXO34] | – | – | 3.28 ± 0.2 | 3.52 ± 0.28
57 | SISELKHALSGHAKVKPFDPKITC [TPH1] | – | – | 2.77 ± 0.45 | 2.93 ± 0.37
58 | YQRFRQKSKASFLLLASGLVITDF [PTGFR] | – | – | 2.65 ± 0.21 | 2.49 ± 0.7
59 | SFAELFSFMLQDRAKGLLGTTVTF [FEM1C] | – | – | 2.79 ± 0.56 | 3.21 ± 0.84
60 | DKFIEDYLLPDTCFRMQINHAIDI [OAS1] | – | – | 2.59 ± 0.36 | 2.17 ± 0.44
61 | SLERGTALFAQVQRGALPAPDPEL [RSAD1] | – | – | 4.18 ± 0.45 | 4.41 ± 0.38
62 | EESFRQMVVIHKEIPTGKKDHECS [ZNF232] | – | – | 4.84 ± 0.31 | 4.77 ± 0.11
63 | PEAAVLFRQMATALAHCHQHGLVL [TRIB3] | – | – | 2.92 ± 0.55 | 2.88 ± 0.48
64 | SGSRHPPWARGCGMFTFLSSVTAA [SLC2A12] | – | – | 2.48 ± 0.43 | 2.38 ± 0.62
65 | QRAFSIQTPEQYYFCYKAILEFAE [PTPN9] | – | – | 2.16 ± 0.29 | 2.16 ± 0.35
66 | SPQFEGPLSPPPINYNGIFSLKQE [NEUROD6] | – | – | 3.96 ± 0.11 | 4.05 ± 0.17

Row | Sequence | protein stability index [1] | protein stability index [2] | protein stability index [3] | protein stability index [4]
67 | FNIAGTVVKYRRPMDVYETGIEYI [ADAMTSL2] | – | – | 2.16 ± 0.33 | 1.8 ± 0.046
68 | ESRDRPSCAPSASIPKLKLTRPVP [PWWP2B] | – | – | 4.26 ± 0.2 | 4.16 ± 0.14
69 | PFTRRYYKEKFGITDLPRIDVSKR [EFHC1] | – | – | 3.01 ± 0.36 | 3.3 ± 0.095
70 | CRPLLPSCTTRLCQEEQLRSHENK [PSD2] | – | – | 4 ± 0.13 | 3.88 ± 0.34
71 | LQMAVLVEKQADTLNVIELNVQKT [STX11] | – | – | 2.59 ± 0.22 | 2.67 ± 0.26
72 | QKSVTRSCLLEEEEESGEEAAEAM [POP5] | – | – | 5.37 ± 0.42 | 5.47 ± 0.27
73 | VLPCIQQIQRISLNTLTLNVKSEK [FLOT1] | – | – | 2.84 ± 0.14 | 2.98 ± 0.24
74 | PWGFRLQGGKDFNVPLSISRLTPG [PDLIM7] | – | – | 2.66 ± 0.18 | 2.66 ± 0.29
75 | PGDFDRNVPRICGVCGDRATGFHF [VDR] | – | – | 2.19 ± 0.13 | 2.64 ± 0.27
76 | NGRGELVESLKRFCASTRLPPTPL [AUP1] | – | – | 3.18 ± 0.38 | 2.94 ± 0.5
77 | KVPVITSSKEEQKLIATSNKPAVK [KCTD10] | – | – | 4.92 ± 0.27 | 5.29 ± 0.23
78 | EGKSRHVDFQCVKSKSITNLAAAA [BTBD10] | – | – | 3.48 ± 0.43 | 3.9 ± 0.28
79 | NVLKIAPESAIKFMAYEQIKRLVG [SLC25A25] | – | – | 3.07 ± 0.54 | 3.04 ± 0.67
80 | QVQLGLRCCGAASYQDWQQNLYFN [TSPAN10] | – | – | 3.12 ± 1.1 | 2.81 ± 0.91
81 | RRVKLQLWDTSGQGRFCTIFRSYS [RAB40B] | – | – | 2.21 ± 0.57 | 2.08 ± 0.32
82 | LFSDPRSTRLTRIHLREDLVQDQD [ZER1] | – | – | 4.53 ± 0.24 | 4.55 ± 0.09
83 | LRPAKRELRGAEPGRPARLDQLLD [SPSB4] | – | – | 4.12 ± 0.2 | 4.03 ± 0.22
84 | SQQQPLRNQVVSSTNGELNVDDPT [CSNK1G1] | – | – | 5.36 ± 0.24 | 5.27 ± 0.2
85 | NELQHDLDVVSDALAKVSRKPSI [TPH1] | 5.17 ± 0.39 | 5.33 ± 0.11 | – | –
86 | YFTKSGFHPDPRQKALYRRLATVH [CLPTM1] | – | – | 2.12 ± 0.41 | 2.35 ± 0.22
87 | NQSVEPKKEEPEPETEAVSSSQEI [ZMYND11] | – | – | 5.25 ± 1 | 5.29 ± 0.52
88 | DGISIPELREACDYLCISFEYSTI [BTBD10] | – | – | 3.18 ± 0.93 | 2.87 ± 0.56
